Columns and labels:
Test in all cases: cell-based or functional assay
[1] = molecular target: T1, CD40 receptor on cells (HEK293 reporter cells expressing CD40; primary human B cells) (human, UniProt P25942 21-277)
[2] = molecular target: T1, CD40 receptor on cells (HEK293 reporter …); remark: listed apart in the source
[3] = molecular target: T1, CD40 receptor on cells (HEK293 reporter …); remark: listed apart in the source

T1 sequence (P25942 21-277): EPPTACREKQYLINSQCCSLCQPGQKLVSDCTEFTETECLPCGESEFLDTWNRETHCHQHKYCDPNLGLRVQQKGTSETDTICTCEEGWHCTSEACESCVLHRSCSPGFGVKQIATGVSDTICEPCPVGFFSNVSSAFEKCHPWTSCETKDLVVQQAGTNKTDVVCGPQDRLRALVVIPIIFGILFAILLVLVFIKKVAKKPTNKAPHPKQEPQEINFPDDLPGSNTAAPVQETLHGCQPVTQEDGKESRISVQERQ

Binder	EC50 [nM], % CD86, human B cells with FAP-CHO, w HSA [1] [nM]	EC50 [nM], % CD86, human B cells with FAP-CHO, w/o HSA [1] [nM]	EC50 [nM], MFI CD86, human B cells with FAP-CHO, w HSA [1] [nM]	EC50 [nM], MFI CD86, human B cells with FAP-CHO, w/o HSA [1] [nM]	Efficacy [MFI at highest dose], MFI CD86, human B cells with FAP-CHO, w HSA [2] [MFI]	Efficacy [MFI at highest dose], MFI CD86, human B cells with FAP-CHO, w/o HSA [2] [MFI]	Efficacy at highest dose, % CD86, human B cells with FAP-CHO, w HSA [2] [%]	Efficacy at highest dose, % CD86, human B cells with FAP-CHO, w/o HSA [2] [%]	Efficacy [MFI at highest dose], MFI CD86, human B cells with WT-CHO (no FAP), w HSA [3] [MFI]	Efficacy [MFI at highest dose], MFI CD86, human B cells with WT-CHO (no FAP), w/o HSA [3] [MFI]	Efficacy at highest dose, % CD86, human B cells with WT-CHO (no FAP), w HSA [3] [%]	Efficacy at highest dose, % CD86, human B cells with WT-CHO (no FAP), w/o HSA [3] [%]
SMA099 (SEQ ID NO: 104) (designed binder) MRGSHHHHHHGSDLGKKLLEAARAGQDDEVRELLKAGADVNAKDYFSHTPLHLAARNGHLKIVEVLLKAGADVNAKDFAGKTPLHLAAADGHLEIVEVLLKAGADVNAQDIFGKTPADIAADAGHEDIAEVLQKAAGSPTPTPTTPTPTPTTPTPTPTGSDLGEKLLVAALYGQDDEVRELLKAGADVNAKDQWGLTPLHKAALQGHLEIVEVLLKAGADVNAKDERGHTPLHWAARFGHLEIVEVLLKAGADVNAQDQKGYTPADLAALWGHEDIAEVLQKAAGSPTPTPTTPTPTPTTPTPTPTGSDLGKKLLQAARAGQLDEVRELLKAGADVNAKDTWGFTPLHIAAESGHLEIVEVLLKAGADVNAKDVQGRTPLHIAAHSGHLEIVEVLLKAGADVNAKDFRGWTPLHLAAWSGHLEIVEILLKAGADVNAQDKSGKTPADLAARAGHQDIAEVLQKAAGSPTPTPTTPTPTPTTPTPTPTGSDLGKKLLQAARAGQLDEVRELLKAGADVNAKDTWGFTPLHIAAESGHLEIVEVLLKAGADVNAKDVQGRTPLHIAAHSGHLEIVEVLLKAGADVNAKDFRGWTPLHLAAWSGHLEIVEILLKAGADVNAQDKSGKTPADLAARAGHQDIAEVLQKAAGSPTPTPTTPTPTPTTPTPTPTGSDLGKKLLEAARAGQDDEVRELLKAGADVNAKDYFSHTPLHLAARNGHLKIVEVLLKAGADVNAKDFAGKTPLHLAAADGHLEIVEVLLKAGADVNAQDIFGKTPADIAADAGHEDIAEVLQKAA	7.5	4.68	19.4	18.2	1720	4950	71.7	84.4	274	289	42.5	47.4
SMA014 (SEQ ID NO: 99) (designed binder) MRGSHHHHHHGSDLGEKLLVAALYGQDDEVRELLKAGADVNAKDQWGLTPLHKAALQGHLEIVEVLLKAGADVNAKDERGHTPLHWAARFGHLEIVEVLLKAGADVNAQDQKGYTPADLAALWGHEDIAEVLQKAAGSPTPTPTTPTPTPTTPTPTPTGSDLGKKLLQAARAGQLDEVRELLKAGADVNAKDTWGFTPLHIAAESGHLEIVEVLLKAGADVNAKDVQGRTPLHIAAHSGHLEIVEVLLKAGADVNAKDFRGWTPLHLAAWSGHLEIVEILLKAGADVNAQDKSGKTPADLAARAGHQDIAEVLQKAA	6.15	4.21	7.7	8.46	2190	2440	47	48.4	310	294	13.3	13.2
SMA105 (SEQ ID NO: 106) (designed binder) MRGSHHHHHHGSDLGEKLLVAALYGQDDEVRELLKAGADVNAKDQWGLTPLHKAALQGHLEIVEVLLKAGADVNAKDERGHTPLHWAARFGHLEIVEVLLKAGADVNAQDQKGYTPADLAALWGHEDIAEVLQKAAGSPTPTPTTPTPTPTTPTPTPTGSDLGKKLLQAARAGQLDEVRELLKAGADVNAKDTWGFTPLHIAAESGHLEIVEVLLKAGADVNAKDVQGRTPLHIAAHSGHLEIVEVLLKAGADVNAKDFRGWTPLHLAAWSGHLEIVEILLKAGADVNAQDKSGKTPADLAARAGHQDIAEVLQKAAGSPTPTPTTPTPTPTTPTPTPTGSDLGKKLLQAARAGQLDEVRELLKAGADVNAKDTWGFTPLHIAAESGHLEIVEVLLKAGADVNAKDVQGRTPLHIAAHSGHLEIVEVLLKAGADVNAKDFRGWTPLHLAAWSGHLEIVEILLKAGADVNAQDKSGKTPADLAARAGHQDIAEVLQKAAGSPTPTPTTPTPTPTTPTPTPTGSDLGKKLLQAARAGQLDEVRELLKAGADVNAKDTWGFTPLHIAAESGHLEIVEVLLKAGADVNAKDVQGRTPLHIAAHSGHLEIVEVLLKAGADVNAKDFRGWTPLHLAAWSGHLEIVEILLKAGADVNAQDKSGKTPADLAARAGHQDIAEVLQKAA	–	0.11	–	0.33	–	5560	–	87.2	–	672	–	69.2
SMA091 (SEQ ID NO: 103) (designed binder) MRGSHHHHHHGSDLGKKLLEAARAGQDDEVRELLKAGADVNAKDYFSHTPLHLAARNGHLKIVEVLLKAGADVNAKDFAGKTPLHLAAADGHLEIVEVLLKAGADVNAQDIFGKTPADIAADAGHEDIAEVLQKAAGSPTPTPTTPTPTPTTPTPTPTGSDLGEKLLVAALYGQDDEVRELLKAGADVNAKDQWGLTPLHKAALQGHLEIVEVLLKAGADVNAKDERGHTPLHWAARFGHLEIVEVLLKAGADVNAQDQKGYTPADLAALWGHEDIAEVLQKAAGSPTPTPTTPTPTPTTPTPTPTGSDLGKKLLQAARAGQLDEVRELLKAGADVNAKDTWGFTPLHIAAESGHLEIVEVLLKAGADVNAKDVQGRTPLHIAAHSGHLEIVEVLLKAGADVNAKDFRGWTPLHLAAWSGHLEIVEILLKAGADVNAQDKSGKTPADLAARAGHQDIAEVLQKAAGSPTPTPTTPTPTPTTPTPTPTGSDLGKKLLQAARAGQLDEVRELLKAGADVNAKDTWGFTPLHIAAESGHLEIVEVLLKAGADVNAKDVQGRTPLHIAAHSGHLEIVEVLLKAGADVNAKDFRGWTPLHLAAWSGHLEIVEILLKAGADVNAQDKSGKTPADLAARAGHQDIAEVLQKAA	2.98	0.76	8.05	3.93	2980	6230	75.6	78.2	296	290	43.1	47.8
AS579 (SEQ ID NO: 105) (designed binder) MRGSHHHHHHGSDLGKKLLEAARAGQDDEVRELLKAGADVNAKDYFSHTPLHLAARNGHLKIVEVLLKAGADVNAKDFAGKTPLHLAAADGHLEIVEVLLKAGADVNAQDIFGKTPADIAADAGHEDIAEVLQKAAGSPTPTPTTPTPTPTTPTPTPTGSDLGKKLLEAARAGQDDEVRELLKAGADVNAKDYFSHTPLHLAARNGHLKIVEVLLKAGADVNAKDFAGKTPLHLAAADGHLEIVEVLLKAGADVNAQDIFGKTPADIAADAGHEDIAEVLQKAAGSPTPTPTTPTPTPTTPTPTPTGSDLGEKLLVAALYGQDDEVRELLKAGADVNAKDQWGLTPLHKAALQGHLEIVEVLLKAGADVNAKDERGHTPLHWAARFGHLEIVEVLLKAGADVNAQDQKGYTPADLAALWGHEDIAEVLQKAAGSPTPTPTTPTPTPTTPTPTPTGSDLGKKLLQAARAGQLDEVRELLKAGADVNAKDTWGFTPLHIAAESGHLEIVEVLLKAGADVNAKDVQGRTPLHIAAHSGHLEIVEVLLKAGADVNAKDFRGWTPLHLAAWSGHLEIVEILLKAGADVNAQDKSGKTPADLAARAGHQDIAEVLQKAAGSPTPTPTTPTPTPTTPTPTPTGSDLGKKLLQAARAGQLDEVRELLKAGADVNAKDTWGFTPLHIAAESGHLEIVEVLLKAGADVNAKDVQGRTPLHIAAHSGHLEIVEVLLKAGADVNAKDFRGWTPLHLAAWSGHLEIVEILLKAGADVNAQDKSGKTPADLAARAGHQDIAEVLQKAA	10.2	2.27	23.1	10	1780	4860	71.9	83	242	252	40.1	42
SMA095 (SEQ ID NO: 101) (designed binder) MRGSHHHHHHGSDLGKKLLEAARAGQDDEVRELLKAGADVNAKDYFSHTPLHLAARNGHLKIVEVLLKAGADVNAKDFAGKTPLHLAAADGHLEIVEVLLKAGADVNAQDIFGKTPADIAADAGHEDIAEVLQKAAGSPTPTPTTPTPTPTTPTPTPTGSDLGEKLLVAALYGQDDEVRELLKAGADVNAKDQWGLTPLHKAALQGHLEIVEVLLKAGADVNAKDERGHTPLHWAARFGHLEIVEVLLKAGADVNAQDQKGYTPADLAALWGHEDIAEVLQKAAGSPTPTPTTPTPTPTTPTPTPTGSDLGKKLLQAARAGQLDEVRELLKAGADVNAKDTWGFTPLHIAAESGHLEIVEVLLKAGADVNAKDVQGRTPLHIAAHSGHLEIVEVLLKAGADVNAKDFRGWTPLHLAAWSGHLEIVEILLKAGADVNAQDKSGKTPADLAARAGHQDIAEVLQKAAGSPTPTPTTPTPTPTTPTPTPTGSDLGKKLLEAARAGQDDEVRELLKAGADVNAKDYFSHTPLHLAARNGHLKIVEVLLKAGADVNAKDFAGKTPLHLAAADGHLEIVEVLLKAGADVNAQDIFGKTPADIAADAGHEDIAEVLQKAA	–	89.8	–	288	232	773	–	28.7	306	299	13.7	12.5
